Laboratory results as given in patent US20110166203A1, “ANTI-HEPATITIS C VIRUS COMPOSITION” (OSAKA UNIVERSITY, priority 2008, published 2011).

Columns and labels:
PA28γ = PA28γ detection by western blotting in shRNA-transfected Huh7 OK1 clones; type: cell-based, human; conditions: clones C5 and C7 vs Huh7 Ok1 cells and control shRNA cells
Method: The DNA fragment was incorporated between the BamHI and Hind III sites of a pSilencer 2.1 U6-hygro vector (Ambion; Austin, Tex.), and introduced by lipofection to Huh7 OK1 cells sensitive to the hepatitis C virus JFH1 strain. The cells were then cultured for 1 week in a 10% fetal bovine serum Dulbecco's modified Eagle's medium supplemented with 0.1 mg/mL hygromycin. The cells were cloned by limiting dilution, and two clones, named C5 and C7, with low PA28γ expression levels were selected by western blotting.
Separately, a commercially available pSilencer 2.1-U6 hygro negative control vector (Ambion) having no complementarity to human PA28γ gene was treated by the same procedure to establish single clones that had the same PA28γ expression level as the parental strain (control cells; hereinafter, also referred to as “control shRNA”).
The Huh7 Ok1 cells, the control cells, and the PA28γ knockdown cells C5 and C7 were lysed, and the lysate was subjected to SDS-polyacrylamide gel electrophoresis for the detection of PA28γ and β-actin by western blotting using anti-PA28γ antibody (Affiniti) and anti-actin antibody (Sigma Aldrich Japan).

HCV replicon RNA = assay: HCV replicon Renilla luciferase replication assay in control and PA28γ knockdown cells; type: cell-based, hepatitis C virus; conditions: knockdown cells C5 (KD5) vs control cells (Cntrl5), 24, 48, 96 h normalized to 4 h
Method: Virus replication by replicon was evaluated in the same manner except that the control cells and knockdown cells prepared in Section 1 above were used, as described in Krieger et al. (Krieger et al., J. Virol., 75:4614-4624, 2001).
A cDNA encoding Renilla luciferase was introduced between AscI and PmeI of a plasmid pFK-1389 neo/NS3-3′/NK5.1, instead of a neogene. The resulting plasmid pFK-1389 hRL/NS3-3/NK5.1 was cleaved at ScaI, and […] in vitro using a MEGAscript T7 kit (Ambion). A suspension of Huh7 cells (10×10^6 cells/mL) was prepared, and 400 μl of the suspension was mixed with 10 μg of in vitro transcription RNA. This was followed by electroporation performed under the conditions 270 V and 960 μF using a Gene Pulser™ (Bio-Rad). The electroporated cells were suspended in 25-ml medium, and inoculated in a 12-well culture plate (1 ml/well). Then, luciferase activities at hour 4, 24, 48, and 96 post infection were measured using a Renilla Luciferase assay system (Promega).
The synthesized HCV replicon RNA, and the HCV replicon GND RNA with the inactivated RNA polymerase activity were transfected into control shRNA cells and PA28γ knockdown cells C5, and luciferase activity was measured.
The measured values in each combination were normalized by dividing the values after 24, 48, and 96 hours by the value after 4 hours.

hepatitis C virus JFH1 = assay: Virus titer of culture supernatant after JFH1 infection of PA28γ constant knockdown cells; type: cell-based; conditions: empty plasmid transfected; JFH1 MOI 0.024; 10 days culture; knockdown cells vs control cells
Method: The control cells (control shRNA) and PA28γknockdown cells C5 and C7 were transfected with pEFFLAGGspGBK or pEFFLAGGsPA28gammaSI plasmid. The next day, the medium was replaced with 10% fetal bovine serum Dulbecco's modified Eagle's medium supplemented with 3 μg/mL puromycin, and the cells were further cultured for 24 hours. The surviving cells were then inoculated in a 12-well plate (2.5×10^4 cells/well), and infected with hepatitis C virus JFH1 at an MOI of 0.024.
The JFH1 gene-containing plasmid pJFH1 was cut with XbaI enzyme, blunted with Mung Bean nuclease, and virus RNA was synthesized using a MEGAscript T7 kit (Ambion). The virus RNA was transfected into Huh7 OK1 cells by electroporation under the conditions 260 V and 960 μF. […] Using Huh7 OK1, the virus titer (ffu/mL) of the culture supernatant was measured according to the method of Wakita et al. (Nat. Med. 11:791-796, 2005), as follows. The Huh7 OK1 cells were infected with the culture supernatant to be measured at 37° C. for 3 hours. […]
The rabbit anti-NS5A antibody prepared by immunizing the peptide from the amino acid residues 409 to 422 of NS5A according to the method described in J. Virol. 79:13473-13482, 2005 was allowed to react with Alexa Fluor® 488-anti-rabbit IgG antibody (Molecular Probe), and the fluorescent cell foci were counted to calculate the virus titer.

PA28γ gene = assay: Selection of RNA interference target sequence by PA28γ expression suppressing effect; type: cell-based, human; conditions: among four target sequences from the open reading frame of the PA28γ gene
Description: A DNA fragment that encodes a short hairpin RNA for knocking down the human PA28γ gene by RNA interference was designed according to the following procedure.
The following four sequences were selected as the target sequences from the open reading frame of the PA28γ gene.
The sequence of SEQ ID NO: 4 corresponds to positions 16 to 36 of the PA28γ coding region represented by SEQ ID NO: 5.

B1: shRNA against PA28γ: short hairpin RNA against target sequence SEQ ID NO: 4 (…), encoded by DNA fragment SEQ ID NO: 6 in pSilencer 2.1 U6-hygro vector (nucleic acid)
DNA: GGATCCGGTGGATCAGGAAGTGAAGTTCAAGAGACTTCACTTCCTGATCCACCTTTTTTGGAAAAGCTT
modifications: the letters are possibly those of the target site
PA28γ
  PA28γ expression level: lower PA28γ expression levels
HCV replicon RNA
  luciferase value (virus replication by replicon): no difference in luciferase value
Hepatitis C virus JFH1
  virus production (virus titer): significantly lower
PA28γ gene
  PA28γ expression suppressing effect: remarkable expression suppressing effect
